Biological target: the molecule itself
Test: SEC

B1: Elk-1 (recombinant, full length) (natural protein, UniProt P19419 1-428, looked up)
chain: MDPSVTLWQFLLQLLREQGNGHIISWTSRDGGEFKLVDAEEVARLWGLRKNKTNMNYDKLSRALRYYYDKNIIRKVSGQKFVYKFVSYPEVAGCSTEDCPPQPEVSVTSTMPNVAPAAIHAAPGDTVSGKPGTPKGAGMAGPGGLARSSRNEYMRSGLYSTFTIQSLQPQPPPHPRPAVVLPSAAPAGAAAPPSGSRSTSPSPLEACLEAEEAGLPLQVILTPPEAPNLKSEELNVEPGLGRALPPEVKVEGPKEELEVAGERGFVPETTKAEPEVPPQEGVPARLPAVVMDTAGQAGGHAASSPEISQPQKGRKPRDLELPLSPSLLGGPGPERTPGSGSGSGLQAPGPALTPSLLPTHTLTPVLLTPSSLPPSIHFWSTLSPIAPRSPAKLSFQFPSSGSAQVHIPSISVDGLSTPVVLSPGPQKP
stoichiometry N: 2
